Test system: MDA-MB468
Assay: internalization of anti c-Met antibody in triple negative breast cancer cell line
Assay type: cell-based
Settings: 1 μg/ml antibody, 180 min at 37° C.; FIG. 8
Protocol: Internalization of anti c-Met antibody IgG1 H8-A2 (also called STI-0602 SEQ ID NO. 25/SEQ ID NO. 26) in MDA-MB468. MDA-MB468 were plated overnight and incubated with 1 μg/ml anti-C-Met H8A2 antibody for 180 min at 37° C. Cells were stained with anti-AF488.

B1: H8-A2: anti c-Met antibody IgG1, heavy chain SEQ ID NO. 25 / light chain SEQ ID NO. 26 (antibody, V domains shown)
VH: EVQLVQSGAEVKKPGASVKVSCKASGYTFYSEYMHWVRQAPGQGLEWMGWINPNSGNTGVAPKFQGRVTMTRNTSISTAYMELSSLRSEDTAVYYCARRGTTVSFDTWGQGTLVTVSS
VL: QLVLTQSPSVSVAPGQRVTISCSGSNSNIGNNYVSWYHHLPGTAPKLLIYDNNKRPSGIPDRFSGSKSGTSATLGITGLQPGDEAHYYCGTWDSTLSAWAFGGGTKLTVL
modifications: Homo sapians
  internalization: internalized

— patent US20170281796A1, “c-Met Antibody Drug Conjugate” (Sorrento Therapeutics, Inc., priority 2014, published 2017)
